Results on 7 molecules are retold here after patent US20160297892A1 (Novo Nordisk, published 2016).

Assay [1] deals with T1, human Protein S (plasma derived) (human, UniProt P07225 42-676).
T1 construct: Bought plasma-derived human Protein S (Haematologic Technologies or Enzyme Research Laboratories); also called Plasma PS; free Protein S
T1 sequence: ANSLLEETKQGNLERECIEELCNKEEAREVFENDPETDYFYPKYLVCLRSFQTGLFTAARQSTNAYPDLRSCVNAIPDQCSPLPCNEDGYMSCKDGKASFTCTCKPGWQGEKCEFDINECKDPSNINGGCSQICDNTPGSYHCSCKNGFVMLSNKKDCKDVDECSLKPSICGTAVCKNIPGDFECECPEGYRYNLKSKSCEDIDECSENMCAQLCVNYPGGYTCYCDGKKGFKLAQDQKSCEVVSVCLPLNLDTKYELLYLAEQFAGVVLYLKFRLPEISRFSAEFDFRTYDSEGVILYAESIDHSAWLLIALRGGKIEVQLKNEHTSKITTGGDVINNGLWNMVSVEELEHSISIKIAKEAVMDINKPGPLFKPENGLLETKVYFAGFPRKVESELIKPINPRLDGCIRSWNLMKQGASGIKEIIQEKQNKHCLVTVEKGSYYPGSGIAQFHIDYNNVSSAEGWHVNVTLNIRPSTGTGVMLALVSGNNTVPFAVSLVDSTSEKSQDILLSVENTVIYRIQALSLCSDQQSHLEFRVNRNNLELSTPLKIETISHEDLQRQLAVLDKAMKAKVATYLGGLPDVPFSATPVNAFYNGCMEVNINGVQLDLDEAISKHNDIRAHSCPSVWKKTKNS
Nature of the assay: ELISA, recombinant antibody. (In general: ELISA stands for enzyme-linked immunosorbent assay.)

The target in assay [2] is T2, EGF1-4 domains of human Protein S with C-terminal HPC4 tag (human, UniProt P07225 114-286, partial hydroxylation of Asn or Asp in the EGF domains (detected by MS)).
T2 construct: also called hEGF1-4; human Protein S EGF1-4
T2 sequence: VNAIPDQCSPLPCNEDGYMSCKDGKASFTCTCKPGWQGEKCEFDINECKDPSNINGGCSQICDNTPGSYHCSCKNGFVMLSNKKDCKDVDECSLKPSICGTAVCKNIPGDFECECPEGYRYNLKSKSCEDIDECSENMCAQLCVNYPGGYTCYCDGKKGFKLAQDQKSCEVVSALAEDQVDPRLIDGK
Nature of the assay: ELISA, recombinant antibody.

The target of assay [3] is T3, Gla-domain deleted recombinant human Protein S (human, UniProt P07225 114-676).
T3 construct: also called hPS-dGla; desGla human Protein S
T3 sequence: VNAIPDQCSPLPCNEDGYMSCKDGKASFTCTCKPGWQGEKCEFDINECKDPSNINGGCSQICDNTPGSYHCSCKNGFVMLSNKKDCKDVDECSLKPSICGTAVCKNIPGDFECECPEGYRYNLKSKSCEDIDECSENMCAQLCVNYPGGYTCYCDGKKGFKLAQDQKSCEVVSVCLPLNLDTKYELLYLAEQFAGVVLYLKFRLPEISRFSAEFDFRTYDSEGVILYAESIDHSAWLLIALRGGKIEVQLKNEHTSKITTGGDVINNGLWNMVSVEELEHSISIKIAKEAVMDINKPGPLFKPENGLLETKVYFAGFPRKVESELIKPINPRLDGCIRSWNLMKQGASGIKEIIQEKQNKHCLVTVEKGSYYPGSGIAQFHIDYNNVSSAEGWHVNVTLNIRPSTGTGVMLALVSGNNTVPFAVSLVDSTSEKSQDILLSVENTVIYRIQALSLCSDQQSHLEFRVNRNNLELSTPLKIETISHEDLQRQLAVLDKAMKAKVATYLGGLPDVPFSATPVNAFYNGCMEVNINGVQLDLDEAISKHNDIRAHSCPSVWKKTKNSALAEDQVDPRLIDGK
The assay is described as follows: ELISA, recombinant antibody.

Assay [4] deals with T4, EGF domain 3 and 4 of recombinant human Protein S (human, UniProt P07225 201-286, limits assumed).
T4 construct: domain: EGF domain 3 and 4; also called hEGF3-4
T4 sequence (looked up): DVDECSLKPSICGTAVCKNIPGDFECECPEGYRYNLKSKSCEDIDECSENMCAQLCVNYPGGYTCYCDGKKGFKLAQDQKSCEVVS
Nature of the assay: ELISA, calcium-free TBS.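 Note: binding of mouse antibodies detected by ELISA with an HRP-conjugated goat anti-mouse IgG secondary and TMB substrate development.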
Procedure: (§1) After incubation and washing a HRP-labelled goat-anti-mouse IgG secondary antibody (Jackson) was added and the ELISA was developed after incubation and wash by addition of 3,3′,5,5′-Tetramethylbenzidine.

In assay [5] the target is T4, EGF domain 3 and 4 of recombinant human …. Nature of the assay: ELISA, recombinant antibody.
Assay [6] addresses T1, human Protein S (plasma derived). The assay is described as follows: ELISA, calcium-free TBS.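 Note: binding of mouse antibodies detected by ELISA with an HRP-conjugated goat anti-mouse IgG secondary and TMB substrate development.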
Procedure: as §1
The target of assay [7] is T2, EGF1-4 domains of human Protein S with …. Nature of the assay: ELISA, calcium-free TBS.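 Note: binding of mouse antibodies detected by ELISA with an HRP-conjugated goat anti-mouse IgG secondary and TMB substrate development.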
Procedure: as §1
Assay [8] deals with T3, Gla-domain deleted recombinant human …. The assay is described as follows: ELISA, calcium-free TBS.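 Note: binding of mouse antibodies detected by ELISA with an HRP-conjugated goat anti-mouse IgG secondary and TMB substrate development.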
Procedure: as §1
For assay [9], the target named is T5, EGF domain 1 and 2 of recombinant human Protein S (human, UniProt P07225 114-200, limits assumed).
T5 construct: domain: EGF domain 1 and 2; also called hEGF1-2
T5 sequence (looked up): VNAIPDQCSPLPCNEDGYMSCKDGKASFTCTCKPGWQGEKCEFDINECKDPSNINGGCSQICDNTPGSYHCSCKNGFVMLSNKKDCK
Nature of the assay: ELISA, calcium-free TBS.
Procedure: as §1

In assay [10] the target is T2, EGF1-4 domains of human Protein S with …. The assay is described as follows: HX-MS, 4 uM EGF1-4 with 2.4 uM mAb.
Procedure: The HX experiments were performed on a nanoACQUITY UPLC System with HDX Technology (Waters Inc.) coupled to a Synapt G2 mass spectrometer (Waters Inc.). The Waters HDX system contained a Leap robot (H/D-x PAL; Waters Inc.) operated by the LeapShell software (Leap Technologies Inc/Waters Inc.), which performed initiation of the deuterium exchange reaction, reaction time control, quench reaction, injection onto the UPLC system and digestion time control. The Leap robot was equipped with two temperature controlled stacks maintained at 20° C. for buffer storage and HX reactions and maintained at 2° C. for storage of protein and quench solution, respectively. The Waters HDX system furthermore contained a temperature controlled chamber holding the pre- and analytical columns, and the LC tubing and switching valves at 0.5° C. A separately temperature controlled chamber holds the pepsin column at 25° C. […] The resulting peptides were trapped and desalted on a VanGuard pre-column BEH C18 1.7 μm (2.1×5 mm (Waters Inc.)). Subsequently, the valves were switched to place the pre-column inline with the analytical column, UPLC-BEH C18 1.7 μm (1×100 mm (Waters Inc.)), and the peptides separated using a 9 min gradient of 10-50% B delivered at 40 μl/min from the nanoAQUITY UPLC system (Waters Inc.). The mobile phases consisted of A: 0.1% formic acid and B: 0.1% formic acid in CH₃CN. […]
For assay [11], the target named is T1, human Protein S (plasma derived). Nature of the assay: SPR (Biacore 3000), Protein S captured on phosphatidylserine vesicles on L1 chip, mAb 250 nM.

B1: M-hProtS-6F138A3 monoclonal antibody (antibody, V domains shown)
VH: QVHLKESGPGLVAPSQNLSITCTVSGFSLTGYGVSWVRQPPGKGLEWLGMIWGDGTTDYNSTLKSRLSISKDNSKSQVFLKMNSLQIDDTARYYCARDPGAMDYWGQGTSVTVSS
VL: QIVLTQSPAIMSASPGEKVTITCSATSSVTYMHWFQQKPGTSPKLWIFSTSNLASGVPPRFSGSGSGTSYSLTISRMEAEDAATYYCQQRSSYPPTFGGGTKLEIKR
notes: Mouse IgG1, kappa; also called 6F138A1/A3
As to B1, the binding result in assay [1] is listed as “binds”; in assay [2], “binds”; in assay [3], “binds”; in [4] it was “no binding”.

B2: M-hProtS-3F2A1 monoclonal antibody (antibody, V domains shown)
VH: EVQLQESGPSLVKPSQTLSLTCSVTGDSITSGYWNWIRKFPGNKLEYMGYISFSGSTYYNPSLKSRISITRDTSKNQYYLQLNSVTTEDTATYYCAREFAYWGQGTLVTVSA
VL: DIVLTQSPATLSVTPGDSVSLSCRASQSISNNLHWYQQKSHESPRLLIKFVSQSISGIPSRFSGSGSGTDFTLSINSVETEDFGMYFCQQSNSWPWTFGGGTKLEIKR
notes: Mouse IgG1, kappa
With B2, the binding result in [5] is “no binding”; in assay [6], “binds”; in assay [7], “binds”; in assay [8], “binds”.

B3: M-hProtS-6F153A2 monoclonal antibody (antibody, mouse IgG1, V domains shown)
VH: QIQLVQSGPELKKPGETVKISCKASGYTFSDYSMHWVKQTPGEGLKWMGWMNTGTGEPTYADDFKGRFAFSLETSATTAHLQINNLKNEDTATYFCARRLYYGTGLAYWGQGTLVTVSA
VL: DIVMTQSHKFMSTSVGDRVSITCKASQDVSTGVAWYQQKPGQSPKLLIFSASSRYSGVPDRFTGSGSGTDFTFTISSVQAEDLAVYYCQQHYSSPRTFGGGTKLEIKR
notes: Tested as antibody purified from hybridoma supernatant; mouse IgG1, kappa
B3: the binding result in assay [6] is on record as “binds”; in [7], “binds”; in assay [4], “no binding”; in [8], “binds”; in assay [9], “no binding”.

B4: M-hProtS-2F82A1 monoclonal antibody (antibody, V domains shown)
VH: QVQLQQPGTELVRPGASVKLSCKASGYTFTSYWMNWVQQRPEQGLEWIGRIDPYDTETHYNQKFEDKAILTVDKSSSTAYMQLSSLTSEDSAVYYCARWAGSSYAMDYWGQGTSVTVSS
VL: QIVLTQSPALMSASPGERVTMTCSASSSVSYMYWYQQKPRSSPKPWIYSTSNLASGVPARFSGSGSGTSYSLTISSMEAEDAATYYCQQWSSNPYTFGGGTKLEIKR
notes: Mouse IgG1, kappa; also called mAb 0017
With B4, the binding result in [5] is reported as “no binding”; in assay [6], “binds”; in assay [7] it was “binds”; in assay [8], “binds”.

B5: M-hProtS-6F170A2 monoclonal antibody (antibody, V domains shown)
VH: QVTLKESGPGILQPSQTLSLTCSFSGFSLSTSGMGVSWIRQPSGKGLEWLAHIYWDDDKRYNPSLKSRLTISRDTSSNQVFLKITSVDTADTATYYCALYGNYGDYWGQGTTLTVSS
VL: QIVLTQSPAIMSASPGEKVTMTCSASSSVSYMYWYQQKPGSSPRILIYDTSNLASGVPVRFSGSGSGTSYSLTISRMEAEDAATYYCQQWSSYPLTFGAGTKLELKR
notes: Mouse IgG1, kappa
On to B5, for which the binding result in [1] is “binds”; in [2], “binds”; in assay [3], “binds”; in assay [9] it was “no binding”.

B6: 0322-0000-0114 (antibody, V domains shown)
VH: EVKLEESGGGLVQPGGSMKLSCAASGFTFSDAWMDWVRQSPEKGLEWVAEIRSKANNHATYYAESVKGRFTISRDDSKSGVYLQMNSLRPEDTGIYYCTLTTAFLFDYWGQGTTLTVSS
VL: QIALTQSPAIMSASPGEKVTMTCSVSSSVSYMHWYQQKPGSSPRLWIYDTSNLVSGVPGRFSGSGSGTSYSLTLSSMEAEDAATYYCQQYSGYLYTFGGGTKLEIKR
notes: also called murine-human chimeric antibody of 2F4A1
With B6, the binding result in assay [10] and in [11] was “binds” in each case.

B7: M-hProtS-2F4A1 monoclonal antibody (antibody, V domains shown)
VH: EVKLEESGGGLVQPGGSMKLSCAASGFTFSDAWMDWVRQSPEKGLEWVAEIRSKANNHATYYAESVKGRFTISRDDSKSGVYLQMNSLRPEDTGIYYCTLTTAFLFDYWGQGTTLTVSS
VL: QIALTQSPAIMSASPGEKVTMTCSVSSSVSYMHWYQQKPGSSPRLWIYDTSNLVSGVPGRFSGSGSGTSYSLTLSSMEAEDAATYYCQQYSGYLYTFGGGTKLEIKR
notes: Mouse IgG1, kappa
On to B7, for which the binding result in assay [5] is “no binding”; in assay [6] it was “binds”; in [7] it was “binds”; in assay [8], “binds”.
